Results reported in patent publication US20240166765A1, “INFLAMMATORY DISEASE TREATMENT USING ANTI-TISSUE FACTOR ANTIBODIES” (Iconic Therapeutics LLC, priority 2020, published 2024).

Experiments:
Assay in all cases: Epitope binning, chimeric TF construct mapping (live cell staining assay)
Type in all cases: binding
[1] = target: T1, chimeric human-rat TF constructs expressed on HEK293 cells (Homo sapiens, UniProt P13726, A112W/A121H/D76N/DEL115-116/DUP123-123/E127T/E131K/E137D/E58Q/F108L/F82T/G113R/G75R/INS118HGKETLF/K100N/K47I/K73R/L104E/L125P/L136R/N139K/N50D/P130R/Q101W/Q64Y/S120T/S129A/S79Y/T133L/T72D/V62T/V65T/Y110V/Y126F/Y83G); conditions: construct h1-107_r (52); human segment replaced by rat segment
T1 construct: expressed in transfected cells; host or cells: HEK293
Experimental: (§1) To establish binding of the anti-human TF antibodies to the various TF constructs, HEK293 cells were transfected with a DNA plasmid that co-expresses the TF construct and a green fluorescent protein marker. For a subset of the antibodies, an antibody titration (a 12-point 1:3 dilution series starting at 250 nM) was evaluated on select TF constructs (See international PCT application PCT/US2019/012427 and U.S. utility application Ser. No. 16/959,652, incorporated herein by reference in their entirety). […] Two days after transfection, cells were collected from the tissue culture plate, stained with 15 μg/ml of the indicated anti-TF antibody, washed, stained with anti-human IgG-Fc Alexa Fluor 647 polyclonal antibody, washed, and stained with the viability dye 4′,6-Diamidino-2-Phenylindole, Dihydrochloride. Upon acquisition of 80,000 live events on a flow cytometer, live cells marked with the fluorescent marker were analyzed for the degree of staining by the anti-TF antibody. […] As used herein, the term “live cell staining assay” refers to the antibody binding assay used in this example.
(§2) When “Percentage antibody binding to TF construct relative to hTF” in Tables 51 and 52 was less than 50%, the antibody was considered a non-binder (0) in Tables 53 and 54.

[2] = target: T2, chimeric human-rat TF constructs expressed on HEK293 cells (Homo sapiens, UniProt P13726, E58Q/K47I/N50D/Q64Y/V62T/V65T); conditions: construct h1-38_r (14); human segment replaced by rat segment
T2 construct: expressed in transfected cells; host or cells: HEK293
Experimental: as §1, §2

[3] = target: T3, chimeric human-rat TF constructs expressed on HEK293 cells (Homo sapiens, UniProt P13726, D177Q/E160K/E162S/F148Y/I184G/K181N/L140I/N156K/N170G/R163F/R168K/S147K/S174T/T144V/T186I/V151G/V155L/W190R/Y188T); conditions: construct h108-158_r (19); human segment replaced by rat segment
T3 construct: expressed in transfected cells; host or cells: HEK293
Experimental: as §1, §2

[4] = target: T4, chimeric human-rat TF constructs expressed on HEK293 cells (Homo sapiens, UniProt P13726, I184G/T186I/W190R/Y188T); conditions: construct h152-158_r (4); human segment replaced by rat segment
T4 construct: expressed in transfected cells; host or cells: HEK293
Experimental: as §1, §2

[5] = target: T5, chimeric human-rat TF constructs expressed on HEK293 cells (Homo sapiens, UniProt P13726, A200N/D212E/E215V/K197R/K201T/N203H/N216S/S192D/S195T/S220F/V221A); conditions: construct h159-189_r (11); human segment replaced by rat segment
T5 construct: expressed in transfected cells; host or cells: HEK293
Experimental: as §1, §2

[6] = target: T6, chimeric human-rat TF constructs expressed on HEK293 cells (Homo sapiens, UniProt P13726, D212E/E215V/N216S/S220F/V221A); conditions: construct h175-189_r (5); human segment replaced by rat segment
T6 construct: expressed in transfected cells; host or cells: HEK293
Experimental: as §1, §2

[7] = target: T7, chimeric human-rat TF constructs expressed on HEK293 cells (Homo sapiens, UniProt P13726, N170G/R168K); conditions: construct h133-139_r (2); human segment replaced by rat segment
T7 construct: expressed in transfected cells; host or cells: HEK293
Experimental: as §1, §2

[8] = target: T8, chimeric human-rat TF constructs expressed on HEK293 cells (Homo sapiens, UniProt P13726, A112W/A121H/DEL115-116/DUP123-123/E127T/E131K/E137D/G113R/INS118HGKETLF/L125P/L136R/N139K/P130R/S120T/S129A/T133L/Y110V/Y126F); conditions: construct h78-107_r.v2 (27); human segment replaced by rat segment
T8 construct: expressed in transfected cells; host or cells: HEK293
Experimental: as §1, §2

[9] = target: T9, chimeric human-rat TF constructs expressed on HEK293 cells (Homo sapiens, UniProt P13726, D76N/E58Q/F108L/F82T/G75R/K100N/K47I/K73R/L104E/N50D/Q101W/Q64Y/S79Y/T72D/V62T/V65T/Y83G); conditions: construct h1-77_r (25); human segment replaced by rat segment
T9 construct: expressed in transfected cells; host or cells: HEK293
Experimental: as §1, §2

[10] = target: T10, chimeric human-rat TF constructs expressed on HEK293 cells (Homo sapiens, UniProt P13726, D76N/F108L/F82T/G75R/K100N/K73R/L104E/Q101W/S79Y/T72D/Y83G); conditions: construct h39-77_r (11); human segment replaced by rat segment
T10 construct: expressed in transfected cells; host or cells: HEK293
Experimental: as §1, §2

[11] = target: T11, chimeric human-rat TF constructs expressed on HEK293 cells (Homo sapiens, UniProt P13726, D177Q/N170G/R168K/S174T); conditions: construct h133-145_r (4); human segment replaced by rat segment
T11 construct: expressed in transfected cells; host or cells: HEK293
Experimental: as §1, §2

[12] = target: T12, chimeric human-rat TF constructs expressed on HEK293 cells (Homo sapiens, UniProt P13726, A112W/A121H/DEL115-116/DUP123-123/G113R/INS118HGKETLF/L125P/S120T/Y110V); conditions: construct h78-93_r (18); human segment replaced by rat segment
T12 construct: expressed in transfected cells; host or cells: HEK293
Experimental: as §1, §2

[13] = target: T13, chimeric human-rat TF constructs expressed on HEK293 cells (Homo sapiens, UniProt P13726, K197R/S192D/S195T); conditions: construct h159-166_r (3); human segment replaced by rat segment
T13 construct: expressed in transfected cells; host or cells: HEK293
Experimental: as §1, §2

[14] = target: T14, chimeric human-rat TF constructs expressed on HEK293 cells (Homo sapiens, UniProt P13726, D177Q/I184G/K181N/N170G/R168K/S174T/T186I/W190R/Y188T); conditions: construct h133-158_r (9); human segment replaced by rat segment
T14 construct: expressed in transfected cells; host or cells: HEK293
Experimental: as §1, §2

TF-011
Antibody binding to TF construct [1]: 0 (less than 50%, the antibody was considered a non-binder (0))
Antibody binding to TF construct [2]: 1 (between 50% and 150%, the antibody was considered a binder (1))
Antibody binding to TF construct [3]: 1 (between 50% and 150%, the antibody was considered a binder (1))
Antibody binding to TF construct [4]: 1 (between 50% and 150%, the antibody was considered a binder (1))
Antibody binding to TF construct [5]: 1 (between 50% and 150%, the antibody was considered a binder (1))
Antibody binding to TF construct [6]: 1 (between 50% and 150%, the antibody was considered a binder (1))
Antibody binding to TF construct [7]: 1 (between 50% and 150%, the antibody was considered a binder (1))
Antibody binding to TF construct [8]: 0 (less than 50%, the antibody was considered a non-binder (0))
Antibody binding to TF construct [9]: 0 (less than 50%, the antibody was considered a non-binder (0))
Antibody binding to TF construct [10]: 0 (less than 50%, the antibody was considered a non-binder (0))
Antibody binding to TF construct [11]: 1 (between 50% and 150%, the antibody was considered a binder (1))
Antibody binding to TF construct [12]: 1 (between 50% and 150%, the antibody was considered a binder (1))
Antibody binding to TF construct [13]: 1 (between 50% and 150%, the antibody was considered a binder (1))
Antibody binding to TF construct [14]: 1 (between 50% and 150%, the antibody was considered a binder (1))
